The values that follow come from the supplement of paper PMC9112550, “Optimization of the antimicrobial peptide Bac7 by deep mutational scanning” (BMC Biology, 2022).

This data set has as its system Escherichia coli TOP10. Nature of the data set: shrunken log2 fold change of peptide-encoding DNA abundance (4.5 h post-induction vs induction); higher = less antimicrobial activity (less host growth inhibition). The conditions noted are these: time post-induction: 4.5 h; library: site-saturation at positions 5, 18, 19, 20.
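Note: peptides expressed intracellularly from a pBAD plasmid library in pooled LB shake-flask culture, induced with 0.3% L-arabinose, DNA abundance read by NGS, three biological replicates, DESeq2 with apeglm shrinkage.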

As for RRIRWRPPRLPRPRPRPWRAPRP, the “shrunken log2 fold change” value worked out at 0.223.

For RRIRVRPPRLPRPRPRPYTKPRP, the “shrunken log2 fold change” value was -0.868.

Turning to RRIRMRPPRLPRPRPRPEQCPRP, the “shrunken log2 fold change” value was -0.00138.

As to RRIRNRPPRLPRPRPRPPVGPRP, the “shrunken log2 fold change” value was 0.444.

RRIRIRPPRLPRPRPRPCSVPRP: the “shrunken log2 fold change” value is -0.466.

With RRIRCRPPRLPRPRPRPMHSPRP, the “shrunken log2 fold change” value was -0.0254.

For RRIRWRPPRLPRPRPRPTGSPRP, the “shrunken log2 fold change” value stood at 0.123.

For RRIRARPPRLPRPRPRPPHLPRP, the “shrunken log2 fold change” value is 2.23.

Regarding RRIRSRPPRLPRPRPRPNVSPRP, the “shrunken log2 fold change” value was -0.0656.

As to RRIRKRPPRLPRPRPRPAAGPRP, the “shrunken log2 fold change” value is 0.896.

Turning to RRIRRRPPRLPRPRPRPGQCPRP, the “shrunken log2 fold change” value is 0.22.

Turning to RRIRCRPPRLPRPRPRPNSEPRP, the “shrunken log2 fold change” value is -0.398.

For the sequence RRIRARPPRLPRPRPRPKGAPRP, the “shrunken log2 fold change” value came to 0.514.

As for RRIRDRPPRLPRPRPRPGYYPRP, the “shrunken log2 fold change” value was determined as 0.117.

With RRIRCRPPRLPRPRPRPMKMPRP, the “shrunken log2 fold change” value is -0.0497.

Regarding RRIRKRPPRLPRPRPRPADPPRP, the “shrunken log2 fold change” value is -0.0715.

Turning to RRIRCRPPRLPRPRPRPCDSPRP, the “shrunken log2 fold change” value is -0.042.

With RRIRRRPPRLPRPRPRPSDCPRP, the “shrunken log2 fold change” value was -0.0825.

As for RRIRMRPPRLPRPRPRPDDAPRP, the “shrunken log2 fold change” value was determined as 0.225.

Consider RRIRHRPPRLPRPRPRPMWIPRP, for which the “shrunken log2 fold change” value is -0.0176.

For the sequence RRIRERPPRLPRPRPRPWMAPRP, the “shrunken log2 fold change” value is -0.0227.

Turning to RRIRLRPPRLPRPRPRPNIEPRP, the “shrunken log2 fold change” value was -0.304.

For RRIRVRPPRLPRPRPRPDFNPRP, the “shrunken log2 fold change” value was -0.344.

In the case of RRIRSRPPRLPRPRPRPHPFPRP, the “shrunken log2 fold change” value is -0.25.

As for RRIRTRPPRLPRPRPRPNRCPRP, the “shrunken log2 fold change” value was -0.189.

On to RRIRCRPPRLPRPRPRPCQVPRP, for which the “shrunken log2 fold change” value was -0.342.

As for RRIRWRPPRLPRPRPRPTGGPRP, the “shrunken log2 fold change” value is 0.511.

Consider RRIRQRPPRLPRPRPRPSWVPRP, for which the “shrunken log2 fold change” value was -0.0385.

As for RRIRPRPPRLPRPRPRPTWVPRP, the “shrunken log2 fold change” value is 0.0694.

As for RRIRTRPPRLPRPRPRPRSMPRP, the “shrunken log2 fold change” value worked out at 0.0542.

For the sequence RRIRTRPPRLPRPRPRPLLLPRP, the “shrunken log2 fold change” value was determined as 0.758.

With RRIRQRPPRLPRPRPRPQALPRP, the “shrunken log2 fold change” value came to 0.0286.

Turning to RRIRSRPPRLPRPRPRPNTFPRP, the “shrunken log2 fold change” value was -0.0296.

For the sequence RRIRGRPPRLPRPRPRPICVPRP, the “shrunken log2 fold change” value is 0.269.

RRIRARPPRLPRPRPRPYIHPRP: the “shrunken log2 fold change” value is -0.681.

Regarding RRIRPRPPRLPRPRPRPDVHPRP, the “shrunken log2 fold change” value is -0.0196.

Consider RRIRRRPPRLPRPRPRPHNCPRP, for which the “shrunken log2 fold change” value was 0.163.

With RRIRIRPPRLPRPRPRPSMIPRP, the “shrunken log2 fold change” value is -0.458.

On to RRIRLRPPRLPRPRPRPNAWPRP, for which the “shrunken log2 fold change” value was determined as 0.0821.

In the case of RRIRKRPPRLPRPRPRPGFEPRP, the “shrunken log2 fold change” value came out at 0.32.

As for RRIRHRPPRLPRPRPRPSIKPRP, the “shrunken log2 fold change” value is -0.501.

On to RRIRDRPPRLPRPRPRPPRMPRP, for which the “shrunken log2 fold change” value worked out at 0.345.

Take RRIRARPPRLPRPRPRPFDEPRP: the “shrunken log2 fold change” value was 0.194.

As to RRIRYRPPRLPRPRPRPPLKPRP, the “shrunken log2 fold change” value was -0.192.

In the case of RRIRHRPPRLPRPRPRPPASPRP, the “shrunken log2 fold change” value was 1.36.

Consider RRIRCRPPRLPRPRPRPWETPRP, for which the “shrunken log2 fold change” value amounted to 0.323.

On to RRIRMRPPRLPRPRPRPEQSPRP, for which the “shrunken log2 fold change” value stood at 3.19.

With RRIRKRPPRLPRPRPRPPQCPRP, the “shrunken log2 fold change” value was 0.26.

Consider RRIRNRPPRLPRPRPRPVNMPRP, for which the “shrunken log2 fold change” value is 0.131.

With RRIRCRPPRLPRPRPRPAFTPRP, the “shrunken log2 fold change” value was determined as 0.0636.

Regarding RRIRCRPPRLPRPRPRPEMIPRP, the “shrunken log2 fold change” value is 0.12.

RRIRTRPPRLPRPRPRPFWEPRP: the “shrunken log2 fold change” value worked out at 1.78.

As to RRIRSRPPRLPRPRPRPEAVPRP, the “shrunken log2 fold change” value was -0.0338.

RRIRMRPPRLPRPRPRPVFDPRP: the “shrunken log2 fold change” value came to 0.184.

With RRIRNRPPRLPRPRPRPLRKPRP, the “shrunken log2 fold change” value was -0.099.

RRIRARPPRLPRPRPRPAGVPRP: the “shrunken log2 fold change” value came out at 0.45.

Consider RRIRGRPPRLPRPRPRPLYRPRP, for which the “shrunken log2 fold change” value stood at 1.11.

For RRIRMRPPRLPRPRPRPESPPRP, the “shrunken log2 fold change” value came to 2.01.

As for RRIRVRPPRLPRPRPRPDSHPRP, the “shrunken log2 fold change” value is -0.111.

For RRIRKRPPRLPRPRPRPDRYPRP, the “shrunken log2 fold change” value was -0.0261.

With RRIRKRPPRLPRPRPRPKYCPRP, the “shrunken log2 fold change” value is -0.632.

In the case of RRIRNRPPRLPRPRPRPNIIPRP, the “shrunken log2 fold change” value was -0.784.

Regarding RRIRWRPPRLPRPRPRPPSRPRP, the “shrunken log2 fold change” value was 0.314.

For RRIRNRPPRLPRPRPRPIHSPRP, the “shrunken log2 fold change” value was -0.189.

Take RRIRRRPPRLPRPRPRPRDVPRP: the “shrunken log2 fold change” value was 0.328.

For RRIRERPPRLPRPRPRPEAGPRP, the “shrunken log2 fold change” value was 0.0425.

As for RRIRVRPPRLPRPRPRPASYPRP, the “shrunken log2 fold change” value was determined as 0.0708.

As to RRIRKRPPRLPRPRPRPSVLPRP, the “shrunken log2 fold change” value amounted to 0.0575.

In the case of RRIRLRPPRLPRPRPRPVIEPRP, the “shrunken log2 fold change” value is -0.0888.

With RRIRYRPPRLPRPRPRPHPWPRP, the “shrunken log2 fold change” value was -0.542.

Consider RRIRFRPPRLPRPRPRPKTEPRP, for which the “shrunken log2 fold change” value was determined as 0.0656.

For the sequence RRIRERPPRLPRPRPRPRPYPRP, the “shrunken log2 fold change” value is -0.0326.

RRIRLRPPRLPRPRPRPWPQPRP: the “shrunken log2 fold change” value is 0.244.

As to RRIRYRPPRLPRPRPRPNINPRP, the “shrunken log2 fold change” value is -1.37.

Turning to RRIRERPPRLPRPRPRPKICPRP, the “shrunken log2 fold change” value turned out to be 0.0135.

With RRIRCRPPRLPRPRPRPNFVPRP, the “shrunken log2 fold change” value is -0.123.

As for RRIRDRPPRLPRPRPRPKKQPRP, the “shrunken log2 fold change” value worked out at 0.187.

As for RRIRNRPPRLPRPRPRPLCLPRP, the “shrunken log2 fold change” value was -0.311.

RRIRLRPPRLPRPRPRPNYSPRP: the “shrunken log2 fold change” value was -0.718.

Consider RRIRKRPPRLPRPRPRPATMPRP, for which the “shrunken log2 fold change” value was found to be 0.49.

Regarding RRIRTRPPRLPRPRPRPTSPPRP, the “shrunken log2 fold change” value amounted to 0.119.

Consider RRIRIRPPRLPRPRPRPTCLPRP, for which the “shrunken log2 fold change” value was -0.0168.

Consider RRIRTRPPRLPRPRPRPYAEPRP, for which the “shrunken log2 fold change” value is -0.612.

As for RRIRQRPPRLPRPRPRPWIHPRP, the “shrunken log2 fold change” value is -0.103.

Take RRIRTRPPRLPRPRPRPLEVPRP: the “shrunken log2 fold change” value was -0.00296.

Take RRIRVRPPRLPRPRPRPQTVPRP: the “shrunken log2 fold change” value was -0.0217.

As to RRIRGRPPRLPRPRPRPHSAPRP, the “shrunken log2 fold change” value amounted to 0.0365.

On to RRIRNRPPRLPRPRPRPPNKPRP, for which the “shrunken log2 fold change” value was 0.125.

For RRIRSRPPRLPRPRPRPKIQPRP, the “shrunken log2 fold change” value was -0.311.

Consider RRIRHRPPRLPRPRPRPIIIPRP, for which the “shrunken log2 fold change” value is -0.247.

Take RRIRLRPPRLPRPRPRPYFRPRP: the “shrunken log2 fold change” value was -0.78.

Take RRIRLRPPRLPRPRPRPVHHPRP: the “shrunken log2 fold change” value was -0.105.

In the case of RRIRYRPPRLPRPRPRPEIRPRP, the “shrunken log2 fold change” value is -0.0132.

As to RRIRGRPPRLPRPRPRPWQRPRP, the “shrunken log2 fold change” value worked out at 0.0817.

Consider RRIRPRPPRLPRPRPRPQNFPRP, for which the “shrunken log2 fold change” value was -0.0849.

Take RRIRVRPPRLPRPRPRPEPMPRP: the “shrunken log2 fold change” value was -0.0177.

RRIRARPPRLPRPRPRPNSYPRP: the “shrunken log2 fold change” value is -0.00611.

Take RRIRRRPPRLPRPRPRPANQPRP: the “shrunken log2 fold change” value turned out to be 0.0564.

As to RRIRFRPPRLPRPRPRPKMVPRP, the “shrunken log2 fold change” value was -0.0413.

Turning to RRIRVRPPRLPRPRPRPFWFPRP, the “shrunken log2 fold change” value is 0.149.

As for RRIRWRPPRLPRPRPRPQPDPRP, the “shrunken log2 fold change” value amounted to 0.32.

With RRIRYRPPRLPRPRPRPWFIPRP, the “shrunken log2 fold change” value was -0.054.

As for RRIRFRPPRLPRPRPRPRSQPRP, the “shrunken log2 fold change” value was -0.105.

As for RRIRARPPRLPRPRPRPYKPPRP, the “shrunken log2 fold change” value was -0.304.

For RRIRKRPPRLPRPRPRPANGPRP, the “shrunken log2 fold change” value turned out to be 0.566.

With RRIRGRPPRLPRPRPRPFSQPRP, the “shrunken log2 fold change” value stood at 0.194.

For RRIRWRPPRLPRPRPRPDNIPRP, the “shrunken log2 fold change” value was -0.12.

As to RRIRFRPPRLPRPRPRPTLWPRP, the “shrunken log2 fold change” value turned out to be 0.275.

In the case of RRIRERPPRLPRPRPRPNKCPRP, the “shrunken log2 fold change” value was -0.522.

On to RRIRPRPPRLPRPRPRPSNHPRP, for which the “shrunken log2 fold change” value is -0.497.

In the case of RRIRIRPPRLPRPRPRPTAGPRP, the “shrunken log2 fold change” value was -0.167.

As for RRIRPRPPRLPRPRPRPKAGPRP, the “shrunken log2 fold change” value was 0.285.

On to RRIRTRPPRLPRPRPRPKNDPRP, for which the “shrunken log2 fold change” value is -0.362.

Turning to RRIRDRPPRLPRPRPRPTAPPRP, the “shrunken log2 fold change” value turned out to be 0.365.

With RRIRPRPPRLPRPRPRPMDKPRP, the “shrunken log2 fold change” value is -0.0612.

For the sequence RRIRCRPPRLPRPRPRPKQNPRP, the “shrunken log2 fold change” value was 0.136.

For RRIRERPPRLPRPRPRPTQGPRP, the “shrunken log2 fold change” value is 0.555.

With RRIRMRPPRLPRPRPRPTLRPRP, the “shrunken log2 fold change” value was found to be 0.334.

In the case of RRIRDRPPRLPRPRPRPMDIPRP, the “shrunken log2 fold change” value was found to be 0.0403.

Consider RRIRFRPPRLPRPRPRPRPSPRP, for which the “shrunken log2 fold change” value is 0.433.

Consider RRIRERPPRLPRPRPRPLKPPRP, for which the “shrunken log2 fold change” value is -0.16.

Take RRIRCRPPRLPRPRPRPWKEPRP: the “shrunken log2 fold change” value was 0.124.

Take RRIRHRPPRLPRPRPRPQAAPRP: the “shrunken log2 fold change” value is -0.0209.

Turning to RRIRDRPPRLPRPRPRPNAAPRP, the “shrunken log2 fold change” value is 0.0798.

As to RRIRYRPPRLPRPRPRPNIFPRP, the “shrunken log2 fold change” value is -0.42.
